US20170183639

Tested on: YFP-CD2 (CD2 expressed in LLC-PK1 cells as a yellow fluorescent protein fused protein)

With Src kinase of LLC-PK1 cells the “basal Src activity measured as Y418 phosphorylation” value was “CD2 expression does increase basal Src activity in this manner as compared with a control cell line”.
